According to US20100015637A1 (AbbVie / Abbott, published 2010):

T1: human PlGF-1 fragment (comprising amino acids 17-131) produced in human embryonic kidney cells (human, UniProt P49763 35-221)
T1 sequence: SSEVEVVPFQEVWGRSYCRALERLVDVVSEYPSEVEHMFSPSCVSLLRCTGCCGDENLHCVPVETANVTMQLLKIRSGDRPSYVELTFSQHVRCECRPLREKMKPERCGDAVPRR

T2: CHO human PlGF-1 comprising amino acids 1-137 (human PlGF-1-His (1-131), CHO 6305) (human, UniProt P49763 19-221, N-glycans at N21 (completely glycosylated) and N89 (partially glycosylated))
T2 construct: Mature human PlGF-1 with 6xHis tag (137 amino acids); also called CHO (1-137)
T2 sequence: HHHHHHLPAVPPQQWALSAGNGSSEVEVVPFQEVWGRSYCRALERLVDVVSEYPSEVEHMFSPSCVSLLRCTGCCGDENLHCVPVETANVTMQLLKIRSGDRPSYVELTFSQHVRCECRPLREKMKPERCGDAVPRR

B1: monoclonal antibody 1-255-713 (produced by murine hybridoma cell line 1-255-713, ATCC PTA-8536) (antibody, mouse IgG2a, V domains shown)
VH: QVHLQQSGAELMKPGASVKISCKATGYTFSSYWIEWVKQRPGHGLEWIGEILPGSVSNNFNEKFKDKATLTADPSSNTAYIQVSSLTSEDSAVYYCARSTGFYYGGNYFDHWGQGTTLAVSS
VL: DVVMTQTPLSLPVSPGDQASISCRSSQSLVHSNGHTYLHWYLQKPGQSPKLLIYKVSNRFSGVPDRVSGSGSGTDFTLKISRVEAEDLGVYFCSQSTHVPPTFGGGTKLEIKR
notes: also called MAb255

Columns and labels:
[1] = target: human PlGF-1 comprising amino acids 1-137 produced in human embryonic kidney cells (human) (UniProt P49763); test: Format 1 …, capture 2-826-335, detection 1-255-713; sFlt-1 1227 pmol/L (ratio 40)
[2] = target: T1, human PlGF-1 fragment (comprising amino …); test: … sandwich, capture MAb255, detection MAb826; antigen 250 pg/mL
Summary of the method: (§1)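 Human PlGF-1 antigen preparations, including recombinant forms expressed in CHO cells, were tested at 0 to 1500 pg/mL in a sandwich immunoassay. The capture antibody was a monoclonal anti-human PlGF-1 antibody immobilized on magnetic microparticles by passive coating and EDAC cross-linking. Detection used an acridinium ester-labeled monoclonal anti-human PlGF-1 antibody. Signal was recorded as chemiluminescent relative light units (RLU) at each antigen level.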

[3] = target: T2, CHO human PlGF-1 comprising amino acids …; test: as above
Summary of the method: as §1

| Molecule | % Inhibition [1] | PlGF-1 Measured [1] | RLU [2] | RLU [3] |
| --- | --- | --- | --- | --- |
| native sFlt-1, isolated from human placental tissue (from UniProt P17948 27-687) (receptor) | 91.9% | 83.2 pg/mL |  |  |
| B1 |  |  | 207000 RLU | 153000 RLU |
